Values of other authors, collected in PMC12703448.

Target: PDE6D (Homo sapiens) (UniProt O43924)
Sequence (O43924 whole entry): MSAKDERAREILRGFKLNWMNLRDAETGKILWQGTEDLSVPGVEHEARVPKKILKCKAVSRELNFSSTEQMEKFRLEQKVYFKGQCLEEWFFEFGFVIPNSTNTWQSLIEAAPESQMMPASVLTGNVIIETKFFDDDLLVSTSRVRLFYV

Sequence of INPP5E (Q9NRR6 1-641): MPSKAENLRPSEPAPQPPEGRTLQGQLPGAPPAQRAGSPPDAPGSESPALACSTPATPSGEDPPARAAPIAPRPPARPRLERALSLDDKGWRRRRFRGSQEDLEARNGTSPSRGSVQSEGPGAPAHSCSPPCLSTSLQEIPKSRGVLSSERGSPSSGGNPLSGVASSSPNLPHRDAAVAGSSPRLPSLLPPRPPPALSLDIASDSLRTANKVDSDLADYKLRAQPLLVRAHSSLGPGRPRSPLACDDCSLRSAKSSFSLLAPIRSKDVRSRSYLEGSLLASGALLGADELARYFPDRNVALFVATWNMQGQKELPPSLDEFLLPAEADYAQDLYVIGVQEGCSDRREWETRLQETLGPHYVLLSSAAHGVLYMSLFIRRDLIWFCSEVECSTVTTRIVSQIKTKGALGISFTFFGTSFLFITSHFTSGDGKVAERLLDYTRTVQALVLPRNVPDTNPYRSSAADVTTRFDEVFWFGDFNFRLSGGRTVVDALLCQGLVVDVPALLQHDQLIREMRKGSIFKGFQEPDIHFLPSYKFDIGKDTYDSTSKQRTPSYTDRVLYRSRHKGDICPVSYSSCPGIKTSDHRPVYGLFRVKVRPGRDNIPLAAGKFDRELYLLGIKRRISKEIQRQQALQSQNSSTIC

Kd: 4 nM
Substance: INPP5E (from UniProt Q9NRR6)
